Molecular target: N-His6-fortilin (human) (UniProt P13693)
Assay: SPR; Biacore 3000, 25 °C, HBS-EPS (0.01 M HEPES, 0.5 M NaCl, 3 mM EDTA, 0.005% Tween 20, pH 7.4), 20 μL/min; forms of rh-fortilin amine-coupled to a CM5 chip; rh-TGF-β1 injected (0 to 200 nM; 100 nM for scouting)

Sequence of N-His6-fortilin (human) (P13693 whole entry): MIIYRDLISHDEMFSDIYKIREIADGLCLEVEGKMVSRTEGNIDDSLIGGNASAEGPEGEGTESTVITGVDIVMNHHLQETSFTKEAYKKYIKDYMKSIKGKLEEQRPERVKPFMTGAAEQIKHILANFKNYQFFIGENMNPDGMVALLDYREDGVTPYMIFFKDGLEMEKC

- Kd: 210 nM
Substance: recombinant human TGF-β1 produced in-house (ligand)
